Experimental data reported in article doi:10.1101/2023.07.03.547485 (bioRxiv, 2023).

Target: T1, 6His-msfGFP-TEV-Mis18FL (S. pombe, UniProt Q9P802 1-194)
T1 sequence (looked up): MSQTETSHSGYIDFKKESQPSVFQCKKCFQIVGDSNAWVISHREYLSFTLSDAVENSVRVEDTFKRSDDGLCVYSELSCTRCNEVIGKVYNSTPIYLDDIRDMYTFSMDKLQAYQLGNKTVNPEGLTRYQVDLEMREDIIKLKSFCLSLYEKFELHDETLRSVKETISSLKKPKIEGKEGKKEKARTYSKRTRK
Test: pull-down

- binding result: binds
B1: 6His-MBP-Sad1(2-167) (domain or fragment, S. pombe, UniProt Q09825 2-167, looked up)
chain: FTNTPVGGKRERQNGAHPAWSTLGANSAQIHQNTADLASKMHKLRYTKIRSPPTRVSIESITPKQRFPAPNFEQAYHSNIRYEQEESDNEEFENVVKNGHEASTNVFYESDGDDEEFVNEEYENSIDEESDDEGYSLNEDTTATNASFRYPMNQRSTRKSQFYSSK
